The results in this text go back to article PMC5636114 (PLoS ONE, 2017).

Series [1] concerns the molecule itself. Briefly: AUC; sedimentation velocity (42,000 rpm) and equilibrium, 20 C, 20 mM Tris (pH 8.5), 250 mM NaCl, 5 mM DTT (low-salt condition), 0.05 to 1 mg/ml (complex also 8 mg/ml); global fit by SEDPHAT: monomer-dimer self-association (dimer to monomers) or A + B <-> AB hetero-association.
Series [2] concerns the molecule itself. Briefly: SEC; Superose 12 analytical gel filtration of nickel-purified protein, 20 mM Tris (pH 7.5), 250 mM NaCl, 5 mM DTT, 0.5 mL/min; migration compared with the C54S/C83A control. On the technique in general: Size exclusion chromatography separates by hydrodynamic size, large species first.

Positions count from the first letter of the chain named. Names may count otherwise.

B1: FLASH NTD C54S/C83A/N101A/L104A/N108A, C-terminally hexahistidine-tagged (domain or fragment, human, UniProt Q9UKL3 51-137, looked up)
chain: SRNSLDLYEEILTEEGTAKEATYNDLQVEYGKAQLQMKELMKKFKEIQTQAFSAINEAQSLKKNISALIKTARVEINRKDEEISNLH
notes: FLASH N-terminal domain, human, residues 51-137, C54S/C83A/N101A/L104A/N108A; also called N101A/L104A/N108A mutant
Regarding B1, the stoichiometry N (as a rule, a count of units in the complex or per binding partner) in series [1] was roughly 3.

B2: FLASH NTD C54S/C83A/Y73A/L76A/Y80A, C-terminally hexahistidine-tagged (domain or fragment, human, UniProt Q9UKL3 51-137, looked up)
chain: B1 chain with Y23A, L26A, Y30A, A51N, A54L, A58N
notes: also called Y73A/L76A/Y80A mutant
On to B2, for which the binding result in series [2] is on record as “binds”.

B3: FLASH NTD C54S/C83A/K88A/K92A/K95A, C-terminally hexahistidine-tagged (domain or fragment, human, UniProt Q9UKL3 51-137, looked up)
chain: B1 chain with K38A, K42A, K45A, A51N, A54L, A58N
notes: also called K88A/K92A/K95A mutant
On to B3, for which the binding result in series [2] is given as “binds”.

B4: FLASH NTD C54S/C83A/R128A/K129A/D130A, C-terminally hexahistidine-tagged (domain or fragment, human, UniProt Q9UKL3 51-137, looked up)
chain: B1 chain with A51N, A54L, A58N, R78A, K79A, D80A
notes: also called R128A/K129A/D130A mutant
Consider B4, for which the binding result in series [2] was “binds”.

B5: FLASH NTD C54S/C83A/L118A/I119A, C-terminally hexahistidine-tagged (domain or fragment, human, UniProt Q9UKL3 51-137, looked up)
chain: B1 chain with A51N, A54L, A58N, L68A, I69A
notes: FLASH N-terminal domain, human, residues 51-137, L118A/I119A in the background of C54S/C83A; also called FLASH NTD L118A/I119A mutant
For B5, in series [2], the binding result was “binds”.
